Laboratory results taken from doi:10.1101/2023.08.11.553033.
Where two headings read alike, the source gives them in different places.

Assays:
[1] = target: T1, Pdr1p DBD (Saccharomyces cerevisiae, UniProt P12383 1-207); test: competition fluorescence polarization
T1 sequence: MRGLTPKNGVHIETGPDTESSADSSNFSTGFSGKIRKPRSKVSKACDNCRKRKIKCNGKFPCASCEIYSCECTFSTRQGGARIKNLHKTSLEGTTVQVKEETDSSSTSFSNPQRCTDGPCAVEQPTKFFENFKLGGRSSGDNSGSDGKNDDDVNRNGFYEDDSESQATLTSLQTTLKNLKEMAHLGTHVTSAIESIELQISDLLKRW

[2] = target: T2, Pdr3p DBD (Saccharomyces cerevisiae, UniProt P33200 1-184); test: competition fluorescence polarization
T2 sequence: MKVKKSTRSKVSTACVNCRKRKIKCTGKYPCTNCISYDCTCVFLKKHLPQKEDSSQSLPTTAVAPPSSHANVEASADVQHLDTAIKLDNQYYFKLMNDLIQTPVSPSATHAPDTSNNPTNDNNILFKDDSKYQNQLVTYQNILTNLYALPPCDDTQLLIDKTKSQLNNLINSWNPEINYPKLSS

[3] = target: T1, Pdr1p DBD; test: competition fluorescence polarization; remark: listed apart in the source
[4] = target: T1, Pdr1p DBD; test: fluorescence polarization
[5] = target: T2, Pdr3p DBD; test: fluorescence polarization
[6] = target: T1, Pdr1p DBD; test: competition fluorescence polarization; remark: listed apart in the source
[7] = target: T2, Pdr3p DBD; test: competition fluorescence polarization; remark: listed apart in the source
[8] = target: T1, Pdr1p DBD; test: competition fluorescence polarization; remark: listed apart in the source
[9] = target: T2, Pdr3p DBD; test: competition fluorescence polarization; remark: listed apart in the source

B1: PBM half site TTCAAGAA (dsDNA)
DNA 1: AAAAGTTCAAGAACAACC
DNA 2: GGTTGTTCTTGAACTTTT
With B1 the binding signal [1] was 30 fold lower affinity than PBM half site and the binding signal [2] was 2.5 fold lower affinity than PBM half site.

B2: PDR5_4 G4T G14A (paper numbering) (dsDNA)
DNA 1: AAACTTCCGTGGAAAACC
DNA 2: GGTTTTCCACGGAAGTTT
B2: binds [3].

B3: PBM half site 18mer (dsDNA)
DNA 1: AAAAGTTCCGGAACAACC
DNA 2: GGTTGTTCCGGAACTTTT
B3 showed a Kd [4] of 229 nM and a Kd [5] of 118 nM.

B4: PBM half site TTCCGAAA (dsDNA)
DNA 1: AAAAGTTCCGAAACAACC
DNA 2: GGTTGTTTCGGAACTTTT
B4: binds [6]; binds [7].

B5: PDR5_4 C4A G4T G14A (paper numbering) (dsDNA)
DNA 1: AAAATTCCGTGGAAAACC
DNA 2: GGTTTTCCACGGAATTTT
B5: binds [8]; binds [9].
